Reference: patent US20210130452A1 (Merck KGaA, published 2021)
Each block holds one binder with its values, some of them ahead of it.

Tests used:
human IL-17A [1] = biological target: T1, human IL-17A (human, UniProt Q16552 24-155, biotinylated with Sulfo-NHS-LC-Biotin in the AlphaScreen assays only); test: SPR Biacore, hIL-17A on chip; periplasmic extract (*)
T1 construct: also called hIL-17A; recombinant human IL-17A
Experimental: (§1) Off-rates of the periplasmic extracts containing anti-IL-17 Nanobodies were measured by Surface Plasmon Resonance (SPR) using a Biacore T100 instrument. […] Periplasmic extracts containing IL-17 neutralizing Nanobodies were injected for 2 minutes at a flow rate of 45 μl/min to allow binding to chip-bound antigen. Next, binding buffer without periplasmic extracts was sent over the chip at the same flow rate to allow spontaneous dissociation of bound Nanobody. From the sensorgrams obtained for the different periplasmic extracts koff-values (k₄) were calculated.

[2] = biological target: T2, human IL-17A/F heterodimer (human, UniProt Q16552 24-155; Q96PD4 31-163, limits assumed, biotinylated with Sulfo-NHS-LC-Biotin in the AlphaScreen assays only); test: SPR Biacore, hIL-17A/F on chip; periplasmic extract (*); NB = no binding
T2 construct: also called hIL-17A/F
T2 sequence (Q16552 24-155 limits assumed, one chain of several): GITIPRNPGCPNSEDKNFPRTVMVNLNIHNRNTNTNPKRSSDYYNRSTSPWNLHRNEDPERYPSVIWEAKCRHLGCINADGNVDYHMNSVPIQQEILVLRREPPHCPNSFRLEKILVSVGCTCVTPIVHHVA
Experimental: as §1

human IL-17F [3] = biological target: T3, human IL-17F (human, UniProt Q96PD4 31-163, biotinylated with Sulfo-NHS-LC-Biotin in the AlphaScreen assays only); test: SPR Biacore, hIL-17F on chip; periplasmic extract (*); NB = no binding
T3 construct: also called hIL-17F; recombinant human IL-17F
T3 sequence: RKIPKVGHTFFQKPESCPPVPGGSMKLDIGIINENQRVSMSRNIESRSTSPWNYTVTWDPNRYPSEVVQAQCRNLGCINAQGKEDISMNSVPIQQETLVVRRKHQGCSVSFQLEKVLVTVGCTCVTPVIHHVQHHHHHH

human IL-17A [4] = biological target: T1, human IL-17A; test: cell-based or functional assay
human IL-17A [5] = biological target: T1, human IL-17A; test: AlphaScreen competition, hIL-17A - IL-17RC-Fc;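 further: Read-out after 1 h at room temperature with the receptor Fc-fusion, Acceptor beads and streptavidin-coated Donor beads present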
Experimental: (§2) To this mixture, the IL-17RA or IL-17RC Fc-fusions, Acceptor beads and the streptavidin Donor beads were added and further incubated for 1 hour at RT.

human IL-17A [6] = biological target: T1, human IL-17A; test: AlphaScreen competition, hIL-17A - IL-17RA-Fc;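 further: receptor Fc-fusion plus Acceptor and streptavidin Donor beads incubated with the mixture for 1 h at room temperature before reading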
Experimental: as §2

human IL-17F [7] = biological target: T4, human IL-17F (human, UniProt Q96PD4 31-163); test: cell-based or functional assay
T4 sequence: T3 sequence

Cynomolgus monkey IL-17F [8] = biological target: T5, Cynomolgus monkey IL-17F (Cynomolgus monkey, UniProt G7P4V0 31-163); test: cell-based or functional assay
T5 sequence: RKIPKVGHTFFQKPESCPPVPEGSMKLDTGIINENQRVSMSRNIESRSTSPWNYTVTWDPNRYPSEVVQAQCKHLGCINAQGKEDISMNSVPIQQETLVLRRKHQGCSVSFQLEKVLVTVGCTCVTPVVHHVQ

human IL-17F [9] = biological target: T4, human IL-17F; test: AlphaScreen IL-17F-IL-17RC; vs IL17MS16A04
human IL-17F [10] = biological target: T4, human IL-17F; test: SPR (Biacore) off-rate
Cynomolgus monkey IL-17F [11] = biological target: T5, Cynomolgus monkey IL-17F; test: SPR (Biacore) off-rate

T1 sequence (Q16552 other isoform, or with tags, fused parts or gaps): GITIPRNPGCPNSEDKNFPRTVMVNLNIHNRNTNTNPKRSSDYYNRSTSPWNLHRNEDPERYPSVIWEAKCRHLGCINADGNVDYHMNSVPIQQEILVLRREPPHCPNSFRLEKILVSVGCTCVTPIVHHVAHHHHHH

- koff (human IL-17A [1]): 0.0001 s⁻¹
- binding result [2]: no binding
- binding result (human IL-17F [3]): no binding
- IL-17A-induced IL-6 production in HT-1080 cells, Emax (human IL-17A [4]): 98.5%
- IL-17A-induced IL-6 production in HT-1080 cells, IC50 (human IL-17A [4]): 3.6 nM
- IC50 (human IL-17A [5]): 0.384 nM
- IC50 (human IL-17A [6]): 0.08 nM
B1: 03B08 (VHH)
VHH: EVQLVESGGGLVQAGGSLRLSCAASGFTFDDYAIGWFRQAPGKEREGVSCISSSDGSIYYADSVKGRFTISSDNAKNTVYLQMNSLKPEDTAVYHCARFGRTGWAEECVDYDYWGQGTQVTVSS
notes: Class 1 Nanobody (anti-IL-17A); not shown: c-myc, His6 tag

- koff (human IL-17A [1]): 0.00045 s⁻¹
- binding result [2]: no binding
- binding result (human IL-17F [3]): no binding
- IL-17A-induced IL-6 production in HT-1080 cells, Emax (human IL-17A [4]): 85.7%
- IL-17A-induced IL-6 production in HT-1080 cells, IC50 (human IL-17A [4]): 68.3 nM
- IC50 (human IL-17A [5]): 1.15 nM
- IC50 (human IL-17A [6]): 0.325 nM
B2: 01G03 (VHH)
VHH: EVQLVESGGGLVQAGGSLRLSCAASERTISNYDMGWFRQAPGKERELIAADISWSALNTNYADSVKGRFTISRDNAKNMVYLQMNNLKPEDTAVYYCAARRSGYASFDNWGQGTQVTVSS
notes: as for B1

- IC50 cell based assay hIL-17F (human IL-17F [7]): 14 nM
- IC50 cell based assay cyno IL-17F (Cynomolgus monkey IL-17F [8]): 34.2 nM
- IC50 fold difference vs WT (human IL-17F [9]): 3.7 fold
- koff (human IL-17F [10]): 0.000655 s⁻¹
- koff (Cynomolgus monkey IL-17F [11]): 0.00111 s⁻¹
B3: IL17MS3063 (VHH)
VHH: DVQLVESGGGLVQPGGSLRLSCAASGRTFSSYVVGWFRQAPGKEREFIGAISGSGESIYYAVSEKGRFTISRDNSKNTLYLQMNSLRPEDTAVYYCTADQEFGYLRFGRSEYWGQGTLVTVSS
notes: variant of IL17MS16A04; Kabat numbering
